Results from article doi:10.1101/2024.10.05.616753.

Target: T1, recombinant human C-reactive protein (human), P02741
T1 chain: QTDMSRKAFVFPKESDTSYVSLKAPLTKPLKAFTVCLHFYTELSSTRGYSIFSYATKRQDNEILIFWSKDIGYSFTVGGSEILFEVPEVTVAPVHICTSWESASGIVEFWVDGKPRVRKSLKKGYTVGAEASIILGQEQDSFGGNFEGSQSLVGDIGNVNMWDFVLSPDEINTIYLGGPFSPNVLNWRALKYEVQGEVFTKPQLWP
Experiment: cryo-EM structure
Details: remark: other sources report otherwise

B1: recombinant human C-reactive protein, P02741-1 19-224 (natural protein)
chain: T1 chain
stoichiometry N: 5
